Laboratory results published in US20250320303A1 (SHENGHE CHINA BIOPHARMACEUTICAL, published 2025).

Assays:
[1] = molecular target: T1, human W3785-hProl.ECD.His (Human-TNFR2-His) protein (human, UniProt P20333 23-257); test: BLI (Octet Red96e), antibody on AHC sensor, Human-TNFR2-His in solution, multiple concentrations
T1 construct: extracellular domain; not shown: His tag
T1 sequence (looked up): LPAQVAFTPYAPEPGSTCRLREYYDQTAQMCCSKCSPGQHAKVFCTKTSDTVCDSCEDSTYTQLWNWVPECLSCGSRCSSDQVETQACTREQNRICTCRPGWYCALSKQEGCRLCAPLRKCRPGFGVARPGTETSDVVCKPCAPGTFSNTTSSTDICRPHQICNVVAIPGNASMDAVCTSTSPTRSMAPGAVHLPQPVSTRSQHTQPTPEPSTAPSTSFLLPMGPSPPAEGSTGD

[2] = molecular target: T1, human W3785-hProl.ECD.His …; test: indirect ELISA on coated Human-TNFR2-His
Method: (1) Coating: Human-TNFR2-His was diluted to 0.5 μg/mL with coating solution (1×PBS, pH 7.4), and coated into a 96-well ELISA plate at 100 μL/well at 4° C. overnight. The coating solution was poured off, and the plate was washed with 1×PBST at 300 μL per well, washed with a plate cleaning instrument for 4 times, and patted dry on sheet paper. [0184] (2) Blocking: it was blocked with 3% non-fat dry milk at 300 μL/well, and incubated at 37° C. for 1 h. The blocking solution was poured off, washed by a plate cleaning instrument for 4 times, and patted dry on sheet paper. [0185] (3) Sample dilution: the reference product and the test product were diluted with 3% non-fat dry milk to 10 μg/mL, and this was used as the initial concentration for 3-fold dilution with a total of 11 gradients of dilution, and another one blank well was set up, and only diluent was added. It was incubated at 100 μL/well at 37° C. for 1 h. Liquid in the wells was discarded, washed by a plate cleaning instrument for 4 times, and patted dry on the sheet paper. [0186] (4) Addition of enzyme-labeled secondary antibody: Peroxidase-conjugated AffiniPure F(ab′)2 Fragment Goat Anti-Human IgG was diluted with 3% non-fat dry milk at 1:20,000. It was incubated at 100 μL/well at 37° C. for 1 h. It was washed by a plate cleaning instrument for 6 times and patted dry on sheet paper. […] (5) Color development: TMB color development solution was added at 100 μL/well and wrapped with aluminium foil, and the color was developed at 37° C. without light for 8 min. [0188] (6) Termination of color development: terminal solution 1 M HCl was added to terminate the color development reaction at 100 μL/well. [0189] (7) Reading at 450 nm on the enzyme labeler. [0190]

| Binder | Kd [1] [nM] | koff [1] [s⁻¹] | kon [1] [M⁻¹ s⁻¹] | EC50 [2] [µg/mL] |
| --- | --- | --- | --- | --- |
| Antibody 12 (antibody, V domains shown, detected with anti-human IgG and captured on AHC sensors) VH: QVQLVQSGAEVKKPGASVKVSCKASGYTFTDYIIHWVRQAPGQGLEWMGWIDPDYGNTDYADKFKKRVTMTADTSISTAFMELSRLRSDDTAVYYCARDDGSPLVMDAWGQGTLVTVSS VL: DIQMTQSPSSLSASVGDRVTITCQGSQNIDNYLAWFQQKPGKAPKLLIYSTYSLQTGVPSRFSGSRSGTDFTLTISSLQPEDFATYFCFQYNNGYMFGGGTKLELK | 0.0863 | 0.000102 | 1.21e+06 | 0.0135 |
| Antibody 13 (antibody, V domains shown, detected with anti-human IgG and captured on AHC sensors) VH: QVQLVQSGAEVKKPGASVKVSCKASGYTFTDYIIHWVRQAPGQGLEWMGWIDPDYGNTDYADKFKKRVTMTADTSISTAFMELSRLRSDDTAVYYCARDDGSPLVMDAWGQGTLVTVSS VL: DIQMTQSPSSLSASVGDRVTITCNGAQNIDNYLAWFQQKPGKAPKLLIYSTYSLQTGVPSRFSGSRSGTDFTLTISSLQPEDFATYFCFQYNNGYMFGGGTKLELK | 0.117 | 0.000134 | 1.15e+06 | 0.00496 |
| Antibody 14 (antibody, V domains shown, detected with anti-human IgG and captured on AHC sensors) VH: QVQLVQSGAEVKKPGASVKVSCKASGYTFTDYIIHWVRQAPGQGLEWMGWIDPDYGNTDYADKFKKRVTMTADTSISTAFMELSRLRSDDTAVYYCARDDASPLVMDAWGQGTLVTVSS VL: DIQMTQSPSSLSASVGDRVTITCNGSQNIDNYLAWFQQKPGKAPKLLIYSTYSLQTGVPSRFSGSRSGTDFTLTISSLQPEDFATYFCFQYNNGYMFGGGTKLELK | 3.03 | 0.00282 | 931000 | 0.00375 |
| Antibody 15 (antibody, V domains shown, detected with anti-human IgG and captured on AHC sensors) VH: QVQLVQSGAEVKKPGASVKVSCKASGYTFTDYIIHWVRQAPGQGLEWMGWIDPDYGNTDYADKFKKRVTMTADTSISTAFMELSRLRSDDTAVYYCARDDASPLVMDAWGQGTLVTVSS VL: DIQMTQSPSSLSASVGDRVTITCQGSQNIDNYLAWFQQKPGKAPKLLIYSTYSLQTGVPSRFSGSRSGTDFTLTISSLQPEDFATYFCFQYNNGYMFGGGTKLELK | 2.06 |  |  | 0.0032 |
| Antibody 16 (antibody, V domains shown, detected with anti-human IgG and captured on AHC sensors) VH: QVQLVQSGAEVKKPGASVKVSCKASGYTFTDYIIHWVRQAPGQGLEWMGWIDPDYGNTDYADKFKKRVTMTADTSISTAFMELSRLRSDDTAVYYCARDEGSPLVMDAWGQGTLVTVSS VL: DIQMTQSPSSLSASVGDRVTITCNGSQNIDNYLAWFQQKPGKAPKLLIYSTYSLQTGVPSRFSGSRSGTDFTLTISSLQPEDFATYFCFQYNNGYMFGGGTKLELK | 0.117 | 0.000134 | 1.15e+06 | 0.0203 |
| Antibody 17 (antibody, V domains shown, detected with anti-human IgG and captured on AHC sensors) VH: QVQLVQSGAEVKKPGASVKVSCKASGYTFTDYIIHWVRQAPGQGLEWMGWIDPDYGNTDYADKFKKRVTMTADTSISTAFMELSRLRSDDTAVYYCARDEGSPLVMDAWGQGTLVTVSS VL: DIQMTQSPSSLSASVGDRVTITCQGSQNIDNYLAWFQQKPGKAPKLLIYSTYSLQTGVPSRFSGSRSGTDFTLTISSLQPEDFATYFCFQYNNGYMFGGGTKLELK | 0.133 | 0.000124 | 933000 | 0.0149 |
| Antibody 18 (antibody, V domains shown, captured on AHC sensors) VH: QVQLVQSGAEVKKPGASVKVSCKASGYTFTDYIIHWVRQAPGQGLEWMGWIDPDYGNTDYADKFKKRVTMTADTSISTAFMELSRLRSDDTAVYYCARDDGSPLVMDAWGQGTLVTVSS VL: DIQMTQSPSSLSASVGDRVTITCQGSQNIDNYLAWFQQKPGKAPKLLIYSTYSLQTGVPSRFSGSRSGTDFTLTISSLQPEDFATYFCFQYNQGYMFGGGTKLELK | 0.0638 | 6.22e-05 | 974000 |  |
| Antibody 21 (antibody, V domains shown, detected with anti-human IgG and captured on AHC sensors) VH: EVQLVESGGGLVKPGGSLRLSCAASGFTFSNAWMGWVRQAPEKGLEWVGQIKDKSNNYPTYYAESVKGRFTISRDDSKNTLYLQMNSLKTEDTAVYYCTTYGDFFDYWGQGTLVTVSS VL: DIQMTQSPSSLSASVGDRVTITCRASEDIYNALAWYQQKPGKVPKLLLYNANSLHTGVPSRFSGSGSGTDYTLTISSLQPEDFATYFCQQYYDHPLTFGQGTKLEIK | 0.177 | 0.000145 | 821000 | 0.0147 |
| Antibody 23 (antibody, V domains shown, captured on AHC sensors) VH: EVQLVQSGAEVKKPGATVKISCKVSGYSITDYLLHWVQQAPGKGLEWMGWIDPEEGKTKYGQKFQSRVTITADTSTDTAYMELSSLRSEDTAVYYCAANSGTGTMDAWGQGTLVTVSS VL: DIVMTQSPATLSVSPGERATLSCKASQNVGSNVDWYQQKPGQSPRVLIYKASIRYTGIPARFSGSGSGTEFTLTISILQSEDFAVYFCMQSKSYPITFGQGTKLEIK | 0.766 | 0.000371 | 484000 |  |

Continued, values first:

| Kd [1] [nM] | koff [1] [s⁻¹] | kon [1] [M⁻¹ s⁻¹] | EC50 [2] [µg/mL] | Binder |
| --- | --- | --- | --- | --- |
| 1.48 | 0.00127 | 862000 |  | Antibody 19 (antibody, V domains shown, captured on AHC sensors) VH: QVQLVQSGAEVKKPGASVKVSCKASGYTFTDYIIHWVRQAPGQGLEWMGWIDPDYGNTDYADKFKKRVTMTADTSISTAFMELSRLRSDDTAVYYCARDDASPLVMDAWGQGTLVTVSS VL: DIQMTQSPSSLSASVGDRVTITCQGSQNIDNYLAWFQQKPGKAPKLLIYSTYSLQTGVPSRFSGSRSGTDFTLTISSLQPEDFATYFCFQYNQGYMFGGGTKLELK |
| 0.33 | 0.000165 | 500000 | 0.0137 | Antibody 22 (antibody, V domains shown, detected with anti-human IgG and captured on AHC sensors) VH: EVQLVESGGGLVKPGGSLRLSCAASGFTFSNAWMGWVRQAPEKGLEWVGQIKDKSNNYPTYYAESVKGRFTISRDDSKNTLYLQMNSLKTEDTAVYYCTTYGDFFDYWGQGTLVTVSS VL: DIQMTQSPSSLSASVGDRVTITCRASEDIYQGLAWYQQKPGKVPKLLLYNANSLHTGVPSRFSGSGSGTDYTLTISSLQPEDFATYFCQQYYDHPLTFGQGTKLEIK |
| 0.152 | 0.000109 | 718000 |  | Antibody 24 (antibody, V domains shown, captured on AHC sensors) VH: EVQLVQSGAEVKKPGATVKISCKVSGYSITDYLLHWVQQAPGKGLEWMGWIDPEDAKTKYGQKFQSRVTITADTSTDTAYMELSSLRSEDTAVYYCAANSGTGTMDAWGQGTLVTVSS VL: DIVMTQSPATLSVSPGERATLSCKASQNVGSNVDWYQQKPGQSPRVLIYKASIRYTGIPARFSGSGSGTEFTLTISILQSEDFAVYFCMQSKSYPITFGQGTKLEIK |
| 1.39 | 0.00193 | 1.39e+06 |  | Antibody 25 (antibody, V domains shown, captured on AHC sensors) VH: EVQLVQSGAEVKKPGATVKISCKVSGYSITDYLLHWVQQAPGKGLEWMGWIDPEEGKTKYGQKFQSRVTITADTSTDTAYMELSSLRSEDTAVYYCAAQSGTGTMDAWGQGTLVTVSS VL: DIVMTQSPATLSVSPGERATLSCKASQNVGSNVDWYQQKPGQSPRVLIYKASIRYTGIPARFSGSGSGTEFTLTISILQSEDFAVYFCMQSKSYPITFGQGTKLEIK |
| 0.0551 | 1.41e-05 | 256000 |  | Antibody 26 (antibody, V domains shown, captured on AHC sensors) VH: EVQLVQSGAEVKKPGATVKISCKVSGYSITDYLLHWVQQAPGKGLEWMGWIDPEEGKTKYGQKFQSRVTITADTSTDTAYMELSSLRSEDTAVYYCAANSATGTMDAWGQGTLVTVSS VL: DIVMTQSPATLSVSPGERATLSCKASQNVGSNVDWYQQKPGQSPRVLIYKASIRYTGIPARFSGSGSGTEFTLTISILQSEDFAVYFCMQSKSYPITFGQGTKLEIK |
| 0.537 | 0.00077 | 1.44e+06 |  | Antibody 27 (antibody, V domains shown, captured on AHC sensors) VH: EVQLVQSGAEVKKPGATVKISCKVSGYSITDYLLHWVQQAPGKGLEWMGWIDPEDAKTKYGQKFQSRVTITADTSTDTAYMELSSLRSEDTAVYYCAAQSGTGTMDAWGQGTLVTVSS VL: DIVMTQSPATLSVSPGERATLSCKASQNVGSNVDWYQQKPGQSPRVLIYKASIRYTGIPARFSGSGSGTEFTLTISILQSEDFAVYFCMQSKSYPITFGQGTKLEIK |
| < 0.001 | < 1e-07 | 225000 |  | Antibody 28 (antibody, V domains shown, captured on AHC sensors) VH: EVQLVQSGAEVKKPGATVKISCKVSGYSITDYLLHWVQQAPGKGLEWMGWIDPEDAKTKYGQKFQSRVTITADTSTDTAYMELSSLRSEDTAVYYCAANSATGTMDAWGQGTLVTVSS VL: DIVMTQSPATLSVSPGERATLSCKASQNVGSNVDWYQQKPGQSPRVLIYKASIRYTGIPARFSGSGSGTEFTLTISILQSEDFAVYFCMQSKSYPITFGQGTKLEIK |
